According to patent US8530619B2, “Identification of the hepcidin binding site on ferroportin” (University of Utah Research Foundation, priority 2007, dated 2013):
“Also recorded” adds a separate entry of the source. Values belong to the molecule of their own block, whether it stands above or below them. No end group written: not given here.

Tests used:
I-HBD = biological target: T1, I-HBD (Homo sapiens, UniProt Q9NP59); assay: Effect of NEM on 125I-hepcidin binding to I-HBD
T1 construct: made in house; host or cells: chemical synthesis
T1 sequence (Q9NP59 with tags, fused parts or gaps limits assumed): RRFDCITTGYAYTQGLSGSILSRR
Protocol: FIGS. 3A and 3B illustrate that the dissociation of the hepcidin/HBD complex is accelerated by low temperature. In FIG. 3A ^125I-hepcidin was added to I-HBD and a complex was allowed to form at 37° C. The I-HBD/^125I-hepcidin complex was washed and then incubated with an excess of non-radioactive hepcidin. The samples were then incubated at 37° C. (closed circle) or 4° C. (open circle) for the specified times and the amount of radioactivity remaining bound to the I-HBD was determined. The data are expressed as radioactivity at each time point relative to the amount bound at time zero. In FIG. 3B the ^125I-hepcidin/1-HBD complex was allowed to form at 37° C., the complex was then washed and incubated with the indicated concentration of NEM and the amount of bound radioactivity was determined after a four-hour incubation (closed circles). I-HBD alone was also incubated with the specified concentrations of NEM for 2 hours. The I-HBD beads were washed and then ^125I-hepcidin was added at 37° C. and the amount of bound radioactivity was determined after a four-hour incubation (open circles).

125I-hepcidin = biological target: T2, 125I-hepcidin (Homo sapiens, UniProt P81172, M80Y); assay: 125I-hepcidin binding to bead-immobilized peptides; settings: 37° C.; listed as HBD peptide containing the human Fpn mutation C326Y
T2 construct: hepcidin 25 synthesized with a tyrosine substitution at position M21 (Y-Hep 25); made in house; host or cells: chemical synthesis
T2 sequence (P81172 60-84 M80Y): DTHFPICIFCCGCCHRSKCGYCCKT
Protocol: FIGS. 2A-C illustrates that the binding of ^125I-hepcidin to HBD is specific and temperature dependent. In FIG. 2A peptides (HBD, scrambled-HBD or mutant (C326Y HBD) were conjugated to beads and ^125I-hepcidin was added to the bead-immobilized peptides (I-HBD) for 18 hours at 37° C. (black bars) or 4° C. (grey bars). The beads were washed and the amount of ^125I-hepcidin bound to the I-HBD was determined. In FIG. 2B a sub saturating concentration of ^125I-hepcidin (0.6 μg/ml) was incubated with I-HBD for 18 hours at 37° C. in the presence or absence of known concentrations of either hepcidin 25 (Hep 25-open circles) or hepcidin 25 synthesized with a tyrosine substitution at position M21 (Y-Hep 25) and the amount of radioactivity bound to the I-HBD determined. […]
FIGS. 3A and 3B illustrate that the dissociation of the hepcidin/HBD complex is accelerated by low temperature. […] (open circle) for the specified times and the amount of radioactivity remaining bound to the I-HBD was determined. The data are expressed as radioactivity at each time point relative to the amount bound at time zero. In FIG. 3B the ^125I-hepcidin/1-HBD complex was allowed to form at 37° C., the complex was then washed and incubated with the indicated concentration of NEM and the amount of bound radioactivity was determined after a four-hour incubation (closed circles). […]

hepcidin [1] = biological target: T3, hepcidin (Homo sapiens, UniProt P81172, M80Y); assay: Inhibition of hepcidin-mediated Fpn-GFP internalization in HEK293TFpn-GFP cells by peptides preincubated with hepcidin; assay type: cell-based; settings: preincubation at 37° C.
T3 construct: generates the mature bioactive 25-amino acid form found in plasma and urine; made in house; host or cells: chemical synthesis
T3 sequence (P81172 60-84 M80Y): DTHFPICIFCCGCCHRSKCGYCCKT
Protocol: (§1) FIGS. 1A-D illustrate inhibition of hepcidin-mediated Fpn internalization by HBD. […] The HBD peptides and hepcidin were mixed at an equal molar ratio for two hours at 37° C. and then added to cells for one or 24 hours. Fpn internalization at one hour was analyzed by epifluorescence (upper panel) and the percentage of cells showing internalized Fpn-GFP at one and 24 hours was quantified (lower panel). The data represent the standard error of the mean from analyzing over 10 fields (20-30 cells) per sample. FIG. 1B illustrates HBD inhibition of Fpn-GFP internalization. Fpn-GFP expressing cells were incubated with hepcidin, hepcidin preincubated with HBD at 37° C. or hepcidin preincubated with HBD at 4° C. Fpn-GFP internalization at one (black bars) and 24 (grey bars) hours was quantified. The percentage of cells with internalized Fpn is shown. FIG. 1C illustrates that ^125I-hepcidin binds to HBD similarly to unlabeled hepcidin. ^125I-hepcidin was preincubated with HBD at 37° C. or 4° C. for one hour and then the mixture added to cells for one hour (black bars) or twenty-four hours (grey bars). The data are expressed as in FIG. 1B. FIG. 1D illustrates the fact that binding of hepcidin to HBD is reversible by low temperature. In the left panel the samples were treated as in FIG. 1C. In the right panel, the sample was incubated at 37° C. and was placed at 4° C. for four hours. The mixture was then incubated with cells at 37° C. and the internalization of Fpn-GFP was determined after one (black bars) or twenty four hours (grey bars).
(§2) Incubation of HEK293TFpn-GFP cells with hepcidin results in the internalization of cell surface Fpn-GFP (2) and FIG. 1A. […] Previously it was determined that hepcidin binding to Fpn was temperature dependent (2).
(§3) HEK293TFpn-GFP, a stable cell line in which Fpn-Green fluorescent protein (GFP) expression is regulated by the ecdysone promoter has been described previously (2).
(§4) Peptides were synthesized at the DNA/Peptide Core Facility, University of Utah, Salt Lake City, Utah. The peptides were synthesized with two arginines added at the amino and carboxyl terminals. […] Microscope analysis was carried out using an Olympus BX51 microscope (Olympus, Tokyo, Japan). Images were acquired using Picture Frame 2.5 software (Olympus America, East Muskogee, Okla.). All experiments were repeated a minimum of 5 times.
(§5) To characterize the interaction of the HBD with hepcidin, hepcidin was labeled at an iodinateable tyrosine to produce ^125I-hepcidin. Previously, it was shown that ^125I-hepcidin bound to Fpn indistinguishably from hepcidin that lacked the iodinateable tyrosine (2). HBD was then conjugated to agarose beads to produce immobilized HBD (I-HBD), which was then preincubated with ^125I-hepcidin at 37° C. prior to addition to Fpn-GFP expressing cells.

hepcidin [2] = biological target: T4, hepcidin (Homo sapiens, UniProt P81172); assay: as above; assay type: cell-based; settings: peptide preincubated with hepcidin at equal molar amounts, 37° C.; HEK293TFpn-GFP cells
T4 construct: generates the mature bioactive 25-amino acid form found in plasma and urine; made in house; host or cells: chemical synthesis
T4 sequence (P81172 60-84): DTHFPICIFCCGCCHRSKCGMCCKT
Protocol: as §1, §2, §3, §4, §5

[3] = biological target: T5, I-HBD (hepcidin binding domain of ferroportin) (Homo sapiens, UniProt Q9NP59); assay: Competition with 125I-hepcidin for binding to I-HBD beads
T5 construct: made in house; host or cells: chemical synthesis
Protocol: FIGS. 2A-C illustrates that the binding of ^125I-hepcidin to HBD is specific and temperature dependent. In FIG. 2A peptides (HBD, scrambled-HBD or mutant (C326Y HBD) were conjugated to beads and ^125I-hepcidin was added to the bead-immobilized peptides (I-HBD) for 18 hours at 37° C. (black bars) or 4° C. (grey bars). The beads were washed and the amount of ^125I-hepcidin bound to the I-HBD was determined. In FIG. 2B a sub saturating concentration of ^125I-hepcidin (0.6 μg/ml) was incubated with I-HBD for 18 hours at 37° C. in the presence or absence of known concentrations of either hepcidin 25 (Hep 25-open circles) or hepcidin 25 synthesized with a tyrosine substitution at position M21 (Y-Hep 25) and the amount of radioactivity bound to the I-HBD determined. In FIG. 2C sub saturating levels of ^125I-hepcidin were incubated with I-HBD at different temperatures.
The binding of ^125I-hepcidin could be reduced by addition of native non-radioactive hepcidin with an apparent K of approximately 200 nM (FIG. 2B). There was no binding of ^125I-hepcidin to I-HBD at 4° C. and ^125I-hepcidin bound to I-HBD at 37° C. was released when subsequently placed at 4° C. (data not shown).
HBD peptides were immobilized by covalently attaching them to agarose beads. […] The fluid was removed and the radioactivity bound to beads was determined by gamma counting (Perkin/Elmer).

Fpn = biological target: T6, Fpn (Homo sapiens, UniProt Q9NP59); settings: reference (7); cited from earlier work
T6 sequence (Q9NP59 1-571): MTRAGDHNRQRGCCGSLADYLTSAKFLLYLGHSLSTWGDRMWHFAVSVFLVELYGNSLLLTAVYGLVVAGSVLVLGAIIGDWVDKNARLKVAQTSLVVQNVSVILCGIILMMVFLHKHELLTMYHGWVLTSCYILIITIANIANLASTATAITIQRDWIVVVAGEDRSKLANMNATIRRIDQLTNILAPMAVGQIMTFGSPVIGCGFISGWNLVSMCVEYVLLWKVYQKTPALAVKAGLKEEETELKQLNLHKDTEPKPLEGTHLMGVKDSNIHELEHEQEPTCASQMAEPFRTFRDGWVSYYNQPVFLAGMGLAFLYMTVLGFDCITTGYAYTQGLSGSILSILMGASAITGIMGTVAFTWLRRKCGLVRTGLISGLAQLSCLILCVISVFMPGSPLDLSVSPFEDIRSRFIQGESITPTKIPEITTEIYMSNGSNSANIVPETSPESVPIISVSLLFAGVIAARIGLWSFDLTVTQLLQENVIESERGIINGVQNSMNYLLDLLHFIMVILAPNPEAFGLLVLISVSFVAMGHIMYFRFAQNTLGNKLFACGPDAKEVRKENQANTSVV

serum hepcidin = assay: Serum hepcidin levels after LPS injection, I-HBD assay; assay type: in vivo; settings: LPS injected mice
Protocol: FIGS. 5A-E illustrate the hepcidin concentrations in mice and human sera. In FIG. 5A, different concentrations of serum were incubated with a known amount of ^125I-hepcidin and I-HBD for 18 hours at 37° C. The beads were washed and radioactivity bound to the beads was determined. A standard curve was determined by incubating known amounts of hepcidin with ^125I-hepcidin and HBD-beads. In FIG. 5B, sera was obtained from wild type mice (C57/Bl6) or from mice that were homozygous for a targeted gene deletion in HFE or homozygous or heterozygous for a targeted gene deletion in the HAMP gene. […] The beads were washed and the amount of radioactivity was determined. Serum hepcidin levels were calculated relative to a standard curve. […] Sera was obtained from the mice 10 hours later and the hepcidin concentration was determined as described in FIG. 5A. In FIG. 5D hepcidin levels were measured in different strains of mice. […] Hepcidin levels were determined as in FIG. 5A. The serum iron (SI), […] (TIBC) and transferrin saturation was calculated as described herein. Each sample was analyzed in triplicate and the error bars represent the standard deviation
HBD peptides were immobilized by covalently attaching them to agarose beads. […] The fluid was removed and the radioactivity bound to beads was determined by gamma counting (Perkin/Elmer). […]

Molecule: CCN1C(=O)C=CC1=O [NEM, N-ethylmaleimide]
125I-hepcidin binding activity of I-HBD (I-HBD; I-HBD treated with NEM before 125I-hepcidin): loss of ^125I-hepcidin binding activity
125I-hepcidin/I-HBD complex (I-HBD; NEM added after complex formed at 37° C.): the complex was not affected

125I-hepcidin binding to the peptide (125I-hepcidin): did not bind ^125I-hepcidin
Fpn-GFP internalization activity of 125I-hepcidin after preincubation with peptide (hepcidin [1]): did not affect
Molecule: HBD Mutant: Fpn peptide containing the C326Y mutation, RR-FDYITTGYAYTQGLSGSILS-RR (SEQ ID NO: 4) (RRFDYITTGYAYTQGLSGSILSRR; HBD Mutant)
hepcidin-mediated internalization of Fpn-GFP (hepcidin [2]): did not prevent hepcidin mediated Fpn-GFP internalization

Fpn-GFP internalization activity of 125I-hepcidin after preincubation with peptide (hepcidin [1]): did not affect
hepcidin-mediated internalization of Fpn-GFP (hepcidin [2]): did not prevent Fpn-internalization
Molecule: HBD Scramble: same amino acid composition as HBD in randomized sequence, RR-ILSLFDAYCTGTQITGSGSY-RR (SEQ ID NO: 3) (RRILSLFDAYCTGTQITGSGSYRR; HBD Scramble)

Molecule: Hep20: hepcidin derivative with the five amino terminal amino acids deleted (ICIFCCGCCHRSKCGMCCKT; not fully specified (N-terminus, C-terminus); ends and bridges not checked)
binding to HBD / I-HBD [3]: nor do they bind to HBD; also recorded: does not bind to I-HBD
binding to Fpn (Fpn): do not bind to Fpn

Molecule: lipopolysaccharide [LPS]
hepcidin levels in sera (serum hepcidin): two-fold increase
